Assay results taken from patent US7776563B2, “Methods for identifying agents for treating cardiovascular disease using inhibition of myeloperoxidase binding” (The Cleveland Clinic Foundation, priority 2004, dated 2010).
Ends that are not written are not given here.

target: binding of human apoA-1 to isolated human MPO (Homo sapiens, UniProt P05164); assay: Binding of human apoA-1 to plate-bound MPO in the presence of peptide; conditions: isolated human MPO bound to wells of a 96 well plate; apoA-1 binding determined in presence of peptide; FIG. 9
Sequence (P05164 279-745 limits assumed): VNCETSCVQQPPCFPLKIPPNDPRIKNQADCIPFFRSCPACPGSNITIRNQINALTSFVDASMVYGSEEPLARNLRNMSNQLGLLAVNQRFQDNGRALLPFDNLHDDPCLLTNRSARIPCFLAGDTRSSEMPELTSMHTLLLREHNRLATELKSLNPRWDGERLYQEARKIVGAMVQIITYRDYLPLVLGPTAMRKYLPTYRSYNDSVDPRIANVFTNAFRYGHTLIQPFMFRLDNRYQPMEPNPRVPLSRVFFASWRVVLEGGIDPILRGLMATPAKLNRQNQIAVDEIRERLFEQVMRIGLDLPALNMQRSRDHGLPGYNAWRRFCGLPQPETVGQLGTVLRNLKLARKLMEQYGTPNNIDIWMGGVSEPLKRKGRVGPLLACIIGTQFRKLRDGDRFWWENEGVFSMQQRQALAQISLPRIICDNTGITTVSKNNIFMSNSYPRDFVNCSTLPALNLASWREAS
Sequence (P05164 165-278 limits assumed): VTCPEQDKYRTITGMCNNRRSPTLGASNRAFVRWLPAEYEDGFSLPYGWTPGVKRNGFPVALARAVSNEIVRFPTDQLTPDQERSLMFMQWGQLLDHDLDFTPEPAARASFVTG
Experimental: Isolated human MPO was bound to the wells in a 96 well plate and then the binding of human apoA-1 to the MPO was determined in the presence of a peptide comprising the sequence N-Ac-(L) AEYHAKATEHLSTL, SEQ ID NO: 2 (also known as the L-ApoA-MPO peptide), a sequence comprising SEQ ID NO: 2 and D amino acids, also known as the D-apoA-MPO peptide, and a peptide comprising the sequence, N-Ac (L) KHETHSLAYAAET, SEQ ID NO: 4.

Row | Substance | effect on binding of apo A-1 to MPO
1 | D-apoA-MPO peptide: a sequence comprising SEQ ID NO: 2 (AEYHAKATEHLSTL) and D amino acids (also: D amino acids (positions not given here); listed as Homo sapiens) | inhibited binding of apo A-1 to MPO
2 | N-Ac (L) KHETHSLAYAAET (Ac-KHETHSLAYAAET; listed as Homo sapiens) [SEQ ID NO: 4, reference compound] | had no effect on MPO-apoA-1 binding
3 | N-Ac-(L) AEYHAKATEHLSTL (Ac-AEYHAKATEHLSTL; listed as Homo sapiens) [L-ApoA-MPO peptide] | inhibited binding of apo A-1 to MPO
